Assay results reported in paper PMC4729865 (Nature Communications, 2016).

B3: Flag-Cep57 (natural protein, human, UniProt Q86XR8 1-500, looked up)
chain: MAAASVSAASGSHLSNSFAEPSRSNGSMVRHSSSPYVVYPSDKPFLNSDLRRSPSKPTLAYPESNSRAIFSALKNLQDKIRRLELERIQAEESVKTLSRETIEYKKVLDEQIQERENSKNEESKHNQELTSQLLAAENKCNLLEKQLEYMRNMIKHAEMERTSVLEKQVSLERERQHDQTHVQSQLEKLDLLEQEYNKLTTMQALAEKKMQELEAKLHEEEQERKRMQAKAAELQTGLETNRLIFEDKATPCVPNARRIKKKKSKPPEKKSSRNYFGAQPHYRLCLGDMPFVAGKSTSPSHAVVANVQLVLHLMKQHSKALCNDRVINSIPLAKQVSSRGGKSKKLSVTPPSSNGINEELSEVLQTLQDEFGQMSFDHQQLAKLIQESPTVELKDKLECELEALVGRMEAKANQITKVRKYQAQLEKQKLEKQKKELKATKKTLDEERNSSSRSGITGTTNKKDFMKLRPGEKRRKNLQLLKDMQSIQNSLQSSSLCWDY
notes: Cep57 (translokin), human; cDNA amplified from a HeLa cell cDNA library; also called purified Cep57 from HEK293T cells; source: HEK293T, purified (anti-Flag beads, 600 mM NaCl wash, eluted by 3 x Flag peptides); not shown: Flag, N-terminal, kept

Assays:
Details in all cases: both partners purified
[1] = molecular target: B3; assay: co-IP; purified proteins incubated together, immunoprecipitated with anti-Flag or anti-GFP antibody, western blotting
[2] = molecular target: T1, MBP-Cep57 (1–242 amino acids) (human, UniProt Q86XR8 1-242); assay: pull-down; about 0.2 μg MBP-Cep57 fragment coupled to Amylose Magnetic beads incubated with about 0.2 μg purified, eluted GST-tagged protein; washed five times with lysis buffer; western blotting with anti-GST
T1 construct: also called MBP-Cep57N; source: E. coli BL21, purified (Amylose Magnetic beads); not shown: MBP, N-terminal, kept
T1 sequence (looked up): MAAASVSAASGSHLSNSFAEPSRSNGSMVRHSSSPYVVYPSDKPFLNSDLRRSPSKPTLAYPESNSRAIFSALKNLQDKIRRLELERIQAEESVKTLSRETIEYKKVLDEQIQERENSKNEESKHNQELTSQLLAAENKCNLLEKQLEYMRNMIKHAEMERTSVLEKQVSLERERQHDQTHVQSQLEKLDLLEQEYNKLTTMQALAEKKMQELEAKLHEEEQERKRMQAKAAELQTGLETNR

[3] = molecular target: T2, Flag-Mad1 (human, UniProt Q9Y6D9 1-718); assay: co-IP; purified proteins incubated together, immunoprecipitated with anti-Flag or anti-GFP antibody, western blotting
T2 construct: Mad1, human; cDNA amplified from a HeLa cell cDNA library; also called Flag-Mad1 (FL); source: HEK293T, purified (anti-Flag beads, 600 mM NaCl wash, eluted by 3 x Flag peptides); not shown: Flag, N-terminal, kept
T2 sequence (looked up): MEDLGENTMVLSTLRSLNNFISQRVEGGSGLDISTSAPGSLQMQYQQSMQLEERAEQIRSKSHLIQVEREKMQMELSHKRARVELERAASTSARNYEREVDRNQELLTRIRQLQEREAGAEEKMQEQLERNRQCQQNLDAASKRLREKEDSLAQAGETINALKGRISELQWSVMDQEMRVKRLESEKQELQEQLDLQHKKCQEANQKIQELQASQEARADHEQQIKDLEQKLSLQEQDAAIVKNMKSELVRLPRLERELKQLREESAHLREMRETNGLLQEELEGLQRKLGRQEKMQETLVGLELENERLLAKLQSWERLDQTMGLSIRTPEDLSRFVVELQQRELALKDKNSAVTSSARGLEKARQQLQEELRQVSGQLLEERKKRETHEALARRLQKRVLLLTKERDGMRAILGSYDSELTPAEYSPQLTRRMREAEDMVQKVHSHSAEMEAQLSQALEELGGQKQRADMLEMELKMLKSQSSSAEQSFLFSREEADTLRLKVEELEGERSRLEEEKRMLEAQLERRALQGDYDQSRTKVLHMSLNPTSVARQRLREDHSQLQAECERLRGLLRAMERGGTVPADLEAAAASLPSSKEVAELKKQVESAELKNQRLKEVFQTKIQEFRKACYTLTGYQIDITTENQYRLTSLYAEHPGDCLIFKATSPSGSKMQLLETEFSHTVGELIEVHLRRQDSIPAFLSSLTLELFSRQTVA

[4] = molecular target: T3, Mad1-GFP (human, UniProt Q9Y6D9 1-718); assay: as above
T3 construct: Mad1, human; cDNA amplified from a HeLa cell cDNA library; not shown: GFP, C-terminal, kept
T3 sequence (looked up): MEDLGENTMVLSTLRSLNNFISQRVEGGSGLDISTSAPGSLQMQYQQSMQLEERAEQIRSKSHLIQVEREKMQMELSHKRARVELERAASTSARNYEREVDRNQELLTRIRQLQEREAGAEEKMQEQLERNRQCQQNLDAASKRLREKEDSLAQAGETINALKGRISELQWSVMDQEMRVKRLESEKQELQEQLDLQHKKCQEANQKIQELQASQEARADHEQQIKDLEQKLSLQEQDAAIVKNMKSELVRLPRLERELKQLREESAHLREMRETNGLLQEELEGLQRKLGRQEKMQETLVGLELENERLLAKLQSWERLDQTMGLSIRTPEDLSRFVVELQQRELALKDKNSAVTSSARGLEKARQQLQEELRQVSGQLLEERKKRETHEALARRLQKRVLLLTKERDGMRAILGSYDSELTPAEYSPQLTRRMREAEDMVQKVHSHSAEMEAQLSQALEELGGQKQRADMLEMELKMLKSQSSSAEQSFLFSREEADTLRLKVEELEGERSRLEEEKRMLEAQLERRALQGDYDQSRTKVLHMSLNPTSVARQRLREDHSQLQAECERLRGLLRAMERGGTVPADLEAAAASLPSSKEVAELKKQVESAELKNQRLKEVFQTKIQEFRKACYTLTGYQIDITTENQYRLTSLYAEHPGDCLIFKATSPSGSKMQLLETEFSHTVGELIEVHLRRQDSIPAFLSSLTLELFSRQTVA

[5] = molecular target: T4, GST-Mad1 (176–718 amino acids) (human, UniProt Q9Y6D9 176-718); assay: pull-down; about 0.2 μg MBP-Cep57 fragment coupled to Amylose Magnetic beads incubated with about 0.2 μg purified, eluted GST-tagged protein; washed five times with lysis buffer; western blotting with anti-GST
T4 construct: source: E. coli BL21, purified (Glutathione Sepharose 4B, eluted by glutathione); not shown: GST, N-terminal, kept
T4 sequence (looked up): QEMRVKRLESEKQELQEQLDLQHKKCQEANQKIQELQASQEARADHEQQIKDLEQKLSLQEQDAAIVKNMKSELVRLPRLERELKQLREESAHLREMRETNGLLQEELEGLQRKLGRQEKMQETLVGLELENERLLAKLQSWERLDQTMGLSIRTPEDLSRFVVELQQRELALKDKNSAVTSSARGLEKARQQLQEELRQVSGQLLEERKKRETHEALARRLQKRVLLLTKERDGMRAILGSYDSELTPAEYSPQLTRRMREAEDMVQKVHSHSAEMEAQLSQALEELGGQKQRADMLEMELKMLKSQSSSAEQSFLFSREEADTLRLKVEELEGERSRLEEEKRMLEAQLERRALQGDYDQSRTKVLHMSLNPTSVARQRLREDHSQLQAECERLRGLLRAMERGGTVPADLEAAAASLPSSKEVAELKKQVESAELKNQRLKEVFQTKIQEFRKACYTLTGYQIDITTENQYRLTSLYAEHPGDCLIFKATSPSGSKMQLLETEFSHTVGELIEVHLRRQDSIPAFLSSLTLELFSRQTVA

B1: GST-Mis12 (natural protein, human, UniProt Q9H081 1-205, looked up)
chain: MSVDPMTYEAQFFGFTPQTCMLRIYIAFQDYLFEVMQAVEQVILKKLDGIPDCDISPVQIRKCTEKFLCFMKGHFDNLFSKMEQLFLQLILRIPSNILLPEDKCKETPYSEEDFQHLQKEIEQLQEKYKTELCTKQALLAELEEQKIVQAKLKQTLTFFDELHNVGRDHGTSDFRESLVSLVQNSRKLQNIRDNVEKESKRLKIS
notes: Mis12, human; cDNA amplified from a HeLa cell cDNA library; also called Mis12 from bacteria; WT GST-Mis12; source: E. coli BL21, purified (Glutathione Sepharose 4B, eluted by glutathione); not shown: GST, N-terminal, kept
[1]
  binding result: binds
[2]
  binding result: binds

B2: GST-Cep57 (195–500 amino acids) (domain or fragment, human, UniProt Q86XR8 195-500, looked up)
chain: EYNKLTTMQALAEKKMQELEAKLHEEEQERKRMQAKAAELQTGLETNRLIFEDKATPCVPNARRIKKKKSKPPEKKSSRNYFGAQPHYRLCLGDMPFVAGKSTSPSHAVVANVQLVLHLMKQHSKALCNDRVINSIPLAKQVSSRGGKSKKLSVTPPSSNGINEELSEVLQTLQDEFGQMSFDHQQLAKLIQESPTVELKDKLECELEALVGRMEAKANQITKVRKYQAQLEKQKLEKQKKELKATKKTLDEERNSSSRSGITGTTNKKDFMKLRPGEKRRKNLQLLKDMQSIQNSLQSSSLCWDY
notes: also called C terminus of Cep57; C-terminal Cep57; source: E. coli, purified (Glutathione Sepharose 4B); not shown: GST, N-terminal, kept
[3]
  binding result: binds

## B3
[4]
  binding result: binds

B4: MBP-Cep57 (151–500 amino acids) (domain or fragment, human, UniProt Q86XR8 151-500, looked up)
chain: RNMIKHAEMERTSVLEKQVSLERERQHDQTHVQSQLEKLDLLEQEYNKLTTMQALAEKKMQELEAKLHEEEQERKRMQAKAAELQTGLETNRLIFEDKATPCVPNARRIKKKKSKPPEKKSSRNYFGAQPHYRLCLGDMPFVAGKSTSPSHAVVANVQLVLHLMKQHSKALCNDRVINSIPLAKQVSSRGGKSKKLSVTPPSSNGINEELSEVLQTLQDEFGQMSFDHQQLAKLIQESPTVELKDKLECELEALVGRMEAKANQITKVRKYQAQLEKQKLEKQKKELKATKKTLDEERNSSSRSGITGTTNKKDFMKLRPGEKRRKNLQLLKDMQSIQNSLQSSSLCWDY
notes: Cep57, human, residues 151-500; source: E. coli BL21, purified (Amylose Magnetic beads); not shown: MBP, N-terminal, kept
[5]
  binding result: binds
